Reference: patent US20170130205A1, “METHOD FOR PREPARING INDUCED PLURIPOTENT STEM CELLS” (TAIPEI VETERANS GENERAL HOSPITAL, priority 2014, published 2017)

Key:
Assay type in all cases: cell-based, human
FD-iPSC-CMs [1] = test: MED64 multi-electrode field potential recording of beating iPSC-derived cardiomyocytes (Fabry); settings: post-induction day 60
Procedure: (§1) The recording area of probes with 64 recording electrodes (MED probe; MED-P515A, Alpha Med Scientific, Osaka) for the MED64 System (Alpha Med Scientific) was coated with 2 ml of 0.1% gelatin that had been incubated at 37° C. for 1 hour. Beating iPSC-derived CMs were transferred onto the MED-probe dishes, and the electrical potentials were recorded with the MED64 multi-electrode array system. […] To evaluate the compounds, a cluster was treated with a compound in stepwise concentration increments. The medium was perfused at 1.7 ml/min at 37° C., and the field potentials were measured for 5 min.

Ctrl-iPSC-CMs = test: MED64 multi-electrode field potential recording of beating iPSC-derived cardiomyocytes (control); settings: post-induction day 60, isoproterenol 0, 1, 10 μM
Procedure: as §1

ESC-CMs, Ctrl-iPSC-CMs = test: Alox12/Alox15 protein expression on Gb3 treatment (Western blot, immunofluorescence), control cells; settings: post-induction day 20, Gb3 15 μmole/L, 24 hours
Procedure: (§2) The extraction of proteins from cells and western blot analysis were performed as described previously (Yang et al., Inhibition of cancer stem cell-like properties and reduced chemoradioresistance of glioblastoma using microrna145 with cationic polyurethane-short branch pei. Biomaterials. 2012; 33:1462-1476). Whole cell lysates were separated by electrophoresis on 12% SDS-PAGE and transferred to a polyvinylidene fluoride membrane. The membranes were blocked with 5% nonfat milk at room temperature for 1 hour. The blots were incubated with primary antibodies in TBST buffer containing 3% nonfat milk at 4° C. overnight and subsequently with secondary antibodies conjugated with peroxidase at 25° C. for 1 hour. The immunoblots were developed using an enhanced chemiluminescence system, and the luminescence was visualized on X-ray film.
(§3) The living cells and spheres were fixed in 4% paraformaldehyde, permeabilized in 0.1% Triton X-100, and blocked in 5% normal goat serum in PBS. […] The total amount of retained autofluorescent material was determined in the red (546) and green (488) channels by quantifying the pixel area (Adobe Photoshop/Image J software). The cellular area contents of the normal iPSC-CMs and the FD-iPSC-CMs were quantified using the ImageJ software package (National Institutes of Health, Bethesda, MD).

FD-iPSC-CMs [2] = test: ELISA of 12-HETE/15-HETE secretion into conditioned medium on Gb3 treatment, Fabry cells; settings: FD-iPSC-CMs (Pt1 to Pt8); Gb3 15 μmole/L, 24 hours
Ctrl-iPSC-CMs or ESC-CMs = test: ELISA of 12-HETE/15-HETE secretion into conditioned medium on Gb3 treatment, control cells; settings: Gb3 15 μmole/L, 24 hours
FD-iPSC-CMs [3] = test: Alox12/Alox15 protein expression on Gb3 treatment (Western blot, immunofluorescence), Fabry cells; settings: FD-iPSC-CMs (Pt1 to Pt8), post-induction day 20; Gb3 15 μmole/L, 24 hours; vs ESC-CMs and Ctrl-iPSC-CMs
Procedure: as §2, §3

[4] = system: ESC-CMs, Ctrl-iPSC-CMs, FC-iPSC-CMs; test: GLA enzyme activity in cardiomyocytes with administration of GLA; settings: day 20 post-induction; GLA 5 μg/ml for 5 days; all experimental cells
Procedure: Cells were washed twice with PBS, incubated in 200 μl of fresh medium at 37° C. and 5% CO2 for 2 hours, and washed twice with PBS. Afterward, the cells were lysed in 60 μl of Lysis Buffer (27 mM of sodium citrate, 46 mM of sodium phosphate dibasic, 0.5% Triton X-100, pH 4.6). Lysates (10 μl) were added to 50 μl of Assay Buffer (Lysis Buffer without Triton X-100) containing 6 mM of 4-MUG and 117 mM of N-acetyl-D-galactosamine (GalNac, an inhibitor of -N-acetylgalactosaminidase, which is a lysosomal enzyme present in cell lysates that hydrolyzes 4-MUG) and incubated at 37° C. for 1 hour. The Stop Solution (0.4 M glycine, pH 10.8; 70 μl) was added, and the fluorescence was read on a Victor plate reader (Perkin-Elmer, Waltham, Mass.) at 355 nm excitation and 460 nm emission. A Micro BCA Protein Assay Kit (Pierce, Rockford, Ill.) was used according to the manufacturer's instructions to determine the protein concentration from 40 μl of cell lysate from each well. The total protein amount in each well was used to normalize the enzyme activity. A 4-methylumbelliferone (4-MU) standard curve ranging from 1.3 nM to 30 μM was run in parallel to calculate the absolute -Gal A activity, expressed as nmol of 4-MU released/mg protein/hour (nmol/mg protein/hour), which was normalized to the percentage of the untreated wild-type (% WT) enzyme activity. […]

FC-iPSC-CMs [5] = test: Cell size of FC-iPSC-CMs by quantification of cTnT-positive margins; settings: early-administration: 5 μg/ml GLA day 20 to day 60
Procedure: (§4) The living cells and spheres were fixed in 4% paraformaldehyde, permeabilized in 0.1% Triton X-100, and blocked in 5% normal goat serum in PBS. After being washed three times with PBS, the cells were incubated with goat anti-mouse secondary antibodies conjugated with FITC (green) or PE (red). DAPI (blue) was used as the nuclear stain. Labeled cells were imaged with a laser-scanning confocal microscope (Olympus). The total amount of retained autofluorescent material was determined in the red (546) and green (488) channels by quantifying the pixel area (Adobe Photoshop/Image J software). The cellular area contents of the normal iPSC-CMs and the FD-iPSC-CMs were quantified using the ImageJ software package (National Institutes of Health, Bethesda, MD).
(§5) However, the interrelationship between treatment onset and the efficacy of ERT drugs in FC with fibrotic progression remains unclear. Therefore, we compared the treatment efficacy of GLA between early (5 μg/ml of GLA from day 20 to day 60 post-differentiation; FIG. 13C) and late (5 μg/ml of GLA from day 40 to day 60 post-differentiation; FIG. 13D) administrations in FC-iPSC-CMs, and evaluated the levels of cardiac Alox12/15 and fibrotic markers at day 60 post-differentiation. […] We therefore tested the treatment efficacy of the pharmacological inhibition of cardiac Alox12/15 in combination with ERT (FIG. 15).

FC-iPSC-CMs [6] = test: Immunofluorescence of Alox12/15 and fibrotic markers in FC-iPSC-CMs under ERT; settings: read at day 60
Procedure: as §4, §5

FC-iPSC-CMs [7] = test: Secreted levels of LysoGb3, 12(S)-HETE and 15(S)-HETE from FC-iPSC-CMs
Procedure: For liquid chromatography for lysoGb3 and Gb3 analysis, we used Waters Alliance 2795XE HPLC system to perform stepwise gradient elution. The flow rate was 0.3 mL/min in lysoGb3 or Gb3 experiment. Mass spectrometry of lysoGb3 and Gb3 detection was performed in positive ion mode (ES+) on a triple quadruplemass spectrometer (Quattro Ultima, Waters, Milford, Mass.) with NeoLynx software version 4.1. The analyzing methods were modified from the protocol provided by Shire Human Genetic Therapies. LC-MS/MS analysis was performed using an LTQ Orbitrap (Thermo Fisher Scientific) as described previously.
Whole blood samples were collected into 1.8 mg/ml EDTA-K3 tubes and centrifuged at 2500×g for 20 min at room temperature to obtain the plasma samples. The aliquots were stored at −80° C. until use. Enzyme-linked immunoassays (ELISAs) were used for 15(S) HETE (Cayman Chemicals) and 12(S) HETE (Detroit R&D) quantification according to the manufacturers' instructions (Detroit R&D).
as §5

[8] = early-administration of GLA, day 60, vs untreated cells
[9] = late-administration of GLA, day 60

Molecule: CC(C)NCC(O)c1ccc(O)c(O)c1 (stereo not shown) [Isoproterenol, isoproterenol]
- electrophysiological response (beating frequency) to the drug (FD-iPSC-CMs [1]): random occurrences of arrhythmias
- effect on beating frequency of contractile colonies (Ctrl-iPSC-CMs): dose-dependent chronotropic effect

Molecule: globotriaosylceramide [Gb3]
- Alox12 and Alox15 protein expression (ESC-CMs, Ctrl-iPSC-CMs): increased
- secretion of 12-HETE and 15-HETE (FD-iPSC-CMs [2]): largely stimulated
- secretion of 12-HETE/15-HETE (Ctrl-iPSC-CMs or ESC-CMs): mildly increase
- Alox12/Alox15 protein expression (FD-iPSC-CMs [3]): upregulation of Alox12/Alox15 at higher magnitudes

B1: α-galactosidase A (protein, UniProt P06280 32-429, looked up)
Alpha-galactosidase A: LDNGLARTPTMGWLHWERFMCNLDCQEEPDSCISEKLFMEMAELMVSEGWKDAGYEYLCIDDCWMAPQRDSEGRLQADPQRFPHGIRQLANYVHSKGLKLGIYADVGNKTCAGFPGSFGYYDIDAQTFADWGVDLLKFDGCYCDSLENLADGYKHMSLALNRTGRSIVYSCEWPLYMWPFQKPNYTEIRQYCNHWRNFADIDDSWKSIKSILDWTSFNQERIVDVAGPGGWNDPDMLVIGNFGLSWNQQVTQMALWAIMAAPLFMSNDLRHISPQAKALLQDKDVIAINQDPLGKQGYQLRQGDNFEVWERPLSGLAWAVAMINRQEIGGPRSYTIAVASLGKGVACNPACFITQLLPVKRKLGFYEWTSRLRSHINPTGTVLLQLENTMQMSLKDLL
notes: enzyme used as enzyme replacement therapy (ERT) in the FC-iPSC-CM platform
- GLA activity in cells [4]: elicited high GLA activity
- cell size of FC-iPSC-CMs (FC-iPSC-CMs [5]): prominently reduced
- expression levels of Alox12/15 and fibrotic biomarkers MMP1, TGF-β and collagen1 (FC-iPSC-CMs [6]; early-administration: 5 μg/ml GLA day 20 to day 60): suppressed
- fibrotic protein expression (FC-iPSC-CMs [6]; late-administration: 5 μg/ml GLA day 40 to day 60): negligible inhibitory effect
- secreted level of 12-HETE (FC-iPSC-CMs [7]; [8]): significantly suppressed
- secreted level of 15-HETE (FC-iPSC-CMs [7]; [8]): significantly suppressed
- secreted level of lysoGb3 (FC-iPSC-CMs [7]; [8]): significantly suppressed
- secreted level of lysoGb3 (FC-iPSC-CMs [7]; [9]): significant reduction
- secretion of 12(S)-HETE (FC-iPSC-CMs [7]; [9]): negligible inhibitory effect
- secretion of 15(S)-HETE (FC-iPSC-CMs [7]; [9]): negligible inhibitory effect
